Source: article PMC12797016
Several values for one entry are separate records, joined by “and”; a condition that tells them apart may be missing. Equal entries are not always repeated.

Assays:
[1] = molecular target: LC8 (dynein light chain, DYNLL1/DYNLL2) (Homo sapiens) (UniProt P63167); experiment: ITC; details: cited from earlier work
[2] = molecular target: LC8 (dynein light chain, DYNLL1/DYNLL2) (Homo sapiens) (UniProt P63167); experiment: ITC; details: cited from earlier work; remark: listed apart in the source
[3] = molecular target: LC8 (dynein light chain, DYNLL1/DYNLL2) (Homo sapiens) (UniProt P63167); experiment: ITC; details: cited from earlier work; remark: listed apart in the source
[4] = molecular target: LC8 (dynein light chain, DYNLL1/DYNLL2) (Homo sapiens) (UniProt P63167); experiment: ITC; details: cited from earlier work; remark: listed apart in the source
[5] = molecular target: LC8 (dynein light chain, DYNLL1/DYNLL2) (Homo sapiens) (UniProt P63167); experiment: ITC; details: cited from earlier work; remark: listed apart in the source
[6] = molecular target: LC8 (dynein light chain, DYNLL1/DYNLL2) (Homo sapiens) (UniProt P63167); experiment: ITC; details: cited from earlier work; remark: listed apart in the source
[7] = molecular target: LC8 (dynein light chain, DYNLL1/DYNLL2) (Homo sapiens) (UniProt P63167); experiment: ITC; details: cited from earlier work; remark: listed apart in the source
[8] = molecular target: LC8 (dynein light chain, DYNLL1/DYNLL2) (Homo sapiens) (UniProt P63167); experiment: ITC; details: cited from earlier work; remark: listed apart in the source
[9] = molecular target: LC8 (dynein light chain, DYNLL1/DYNLL2) (Homo sapiens) (UniProt P63167); experiment: ITC; details: cited from earlier work; remark: listed apart in the source
[10] = molecular target: LC8 (dynein light chain, DYNLL1/DYNLL2) (Homo sapiens) (UniProt P63167); experiment: ITC; details: cited from earlier work; remark: listed apart in the source
[11] = molecular target: LC8 (dynein light chain, DYNLL1/DYNLL2) (Homo sapiens) (UniProt P63167); experiment: ITC; details: cited from earlier work; remark: listed apart in the source
[12] = molecular target: LC8 (dynein light chain, DYNLL1/DYNLL2) (Homo sapiens) (UniProt P63167); experiment: ITC; details: cited from earlier work; remark: listed apart in the source
[13] = molecular target: LC8 (dynein light chain, DYNLL1/DYNLL2) (Homo sapiens) (UniProt P63167); experiment: ITC; details: cited from earlier work; remark: listed apart in the source
[14] = molecular target: LC8 (dynein light chain, DYNLL1/DYNLL2) (Homo sapiens) (UniProt P63167); experiment: ITC; details: cited from earlier work; remark: listed apart in the source
[15] = molecular target: LC8 (dynein light chain, DYNLL1/DYNLL2) (Homo sapiens) (UniProt P63167); experiment: ITC; details: cited from earlier work; remark: listed apart in the source
[16] = molecular target: LC8 (dynein light chain, DYNLL1/DYNLL2) (Homo sapiens) (UniProt P63167); experiment: ITC; details: cited from earlier work; remark: listed apart in the source
[17] = molecular target: LC8 (dynein light chain, DYNLL1/DYNLL2) (Homo sapiens) (UniProt P63167); experiment: ITC; details: cited from earlier work; remark: listed apart in the source
[18] = molecular target: LC8 (dynein light chain, DYNLL1/DYNLL2) (Homo sapiens) (UniProt P63167); experiment: ITC; details: cited from earlier work; remark: listed apart in the source
[19] = molecular target: 6xHis-tagged rGKAP_(655–711) (Rattus norvegicus) (UniProt P97836); experiment: BLI; 6xHis-tagged rGKAP655-711 immobilised on Ni-NTA biosensors (5 ug/mL, 90 s); LC8 dimers 3.125-50 uM, association and dissociation 90 s each; kinetic buffer 50 mM sodium phosphate, 20 mM NaCl, pH 6.0, 20 mM imidazole, 0.1% BSA, 0.02% Tween 20, 0.02% NaN3; sensors hydrated at 25 °C; global fit; BLItz
[20] = molecular target: rGKAP_(655–711), LC8-binding segment of Rattus norvegicus guanylate kinase-associated protein (GKAP), His tag removed (Rattus norvegicus) (UniProt P97836); experiment: dynamic light scattering; particle size of GKAP, LC8 dimer and their complex at 20 °C; W130i DLS device
[21] = molecular target: LC8 (dynein light chain, DYNLL1/DYNLL2) (Homo sapiens) (UniProt P63167); experiment: ITC; details: cited from earlier work; remark: listed apart in the source
[22] = molecular target: LC8 (dynein light chain, DYNLL1/DYNLL2) (Homo sapiens) (UniProt P63167); experiment: ITC; details: cited from earlier work; remark: listed apart in the source

UniProt P63167, sequence (P63167 whole entry): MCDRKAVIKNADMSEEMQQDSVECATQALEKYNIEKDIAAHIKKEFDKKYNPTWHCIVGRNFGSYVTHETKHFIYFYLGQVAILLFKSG

## 53BP1
[1]
  Kd: 5.2 µM
[2]
  Kd: 1 µM
[3]
  Kd: 0.62 µM

## AKAP9
[2]
  Kd: 12.4 µM

## ALMS1
[2]
  Kd: 19.2 µM

## AMOT
[2]
  Kd: 1.2 µM

## AMOTL1
[2]
  Kd: 1.55 µM

## AMOTL2
[2]
  Kd: 1.98 µM

## ASCIZ
[4]
  Kd: 36 µM
[5]
  Kd: 15 µM
[6]
  Kd: 11 µM
[7]
  Kd: 14 µM
[8]
  Kd: 9.3 µM
[9]
  Kd: 15 µM
[2]
  Kd: 20 µM
[10]
  Kd: 7 µM
[11]
  Kd: 10 µM

## Bim
[2]
  Kd: 0.52 µM

## CDK5RAP2
[2]
  Kd: 12.5 µM

## CEP152
[2]
  Kd: 2.37 µM

## CFAP91
[2]
  Kd: 0.55 µM

## EML3
[2]
  Kd: 0.05 µM

## GKAP
[2]
  Kd: 2.4 µM

## IC
[2]
  Kd: 3 µM

## IQUB
[2]
  Kd: 3.57 µM

## Kib1
[2]
  Kd: 0.45 µM

## Kib2
[2]
  Kd: 4 µM

## L-MAG
[2]
  Kd: 7.3 µM

## LCA5
[2]
  Kd: 2.6 µM and 8.1 µM

## MAP4
[2]
  Kd: 4.42 µM

## Myosin Va
[2]
  Kd: 8.85 µM

## NEK9
[2]
  Kd: 0.16 µM

## NUP159
[2]
  Kd: 1 µM

## OFD1
[2]
  Kd: 12.5 µM and 12.8 µM

## Pak1
[2]
  Kd: 42.7 µM

## Restv
[2]
  Kd: 62.1 µM

## SAO-1
[2]
  Kd: 0.5 µM
[12]
  Kd: 0.5 µM

## Sudv
[2]
  Kd: 6.45 µM

## Swa
[2]
  Kd: 0.62 µM

## WWC1
[2]
  Kd: 4 µM
[13]
  Kd: 0.45 µM

## WWC2
[2]
  Kd: 32.7 µM
[14]
  Kd: 17.6 µM

## WWC3
[2]
  Kd: 5.34 µM
[15]
  Kd: 3.5 µM

## ana2
[2]
  Kd: 12.8 µM
[16]
  Kd: 1.14 µM

## bmf
[2]
  Kd: 0.79 µM

## dyn intermediate chain (ICTL)
[17]
  Kd: 8 µM
[18]
  Kd: 8 µM
[2]
  Kd: 0.5 µM

## dynein light chain LC8 (DYNLL2, DLC2), Rattus norvegicus, dimer (natural protein)
[19]
  Kd: 0.29 µM
  koff: 0.0025 s⁻¹
  kon: 8800 M⁻¹ s⁻¹
[20]
  stoichiometry N (LC8 dimers per GKAP segment (2 : 2)): 1

## myosin Va
[2]
  Kd: 9 µM

## nNOS
[2]
  Kd: 5.41 µM and 7 µM

## protein panoramix
[21]
  Kd: 0.075 µM
[2]
  Kd: 0.14 µM

## vp35 virus
[2]
  Kd: 3.91 µM
[22]
  Kd: 3.91 µM
